Reference: PMC11198818, “Positive charges promote the recognition of proteins by the chaperone SlyD from Escherichia coli” (PLOS ONE, 2024)

Experiments:
Test in all cases: ITC; VP-ITC (MicroCal), 30°C, 10 mM potassium phosphate buffer pH 7.6 or 7.8; SlyD or its variant 30 uM in the calorimetric cell, HiPIP precursor (RR-HiPIP) injected: 100 uM, 2x 22 injections of 10 uL (Fig 4); 200 uM, 23 injections of 10 uL (Fig 3)
Settings in all cases: both partners purified
[1] = target: T1, SlyD F84N, C-terminally hexahistidine-tagged (E. coli, UniProt P0A9K9 1-196, F84N)
T1 construct: FKBP-type peptidyl-prolyl cis-trans isomerase SlyD, E. coli; the tag is fused to the C-terminal domain; not shown: His6, C-terminal, kept
T1 sequence: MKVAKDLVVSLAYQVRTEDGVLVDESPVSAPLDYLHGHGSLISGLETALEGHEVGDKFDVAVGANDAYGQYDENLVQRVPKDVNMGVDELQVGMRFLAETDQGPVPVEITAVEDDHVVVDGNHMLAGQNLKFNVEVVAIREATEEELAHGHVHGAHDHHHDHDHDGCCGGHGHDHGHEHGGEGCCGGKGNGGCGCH

[2] = target: T2, SlyD E113A, C-terminally hexahistidine-tagged (E. coli, UniProt P0A9K9 1-196, E113A)
T2 construct: FKBP-type peptidyl-prolyl cis-trans isomerase SlyD, E. coli; the tag is fused to the C-terminal domain; not shown: His6, C-terminal, kept
T2 sequence: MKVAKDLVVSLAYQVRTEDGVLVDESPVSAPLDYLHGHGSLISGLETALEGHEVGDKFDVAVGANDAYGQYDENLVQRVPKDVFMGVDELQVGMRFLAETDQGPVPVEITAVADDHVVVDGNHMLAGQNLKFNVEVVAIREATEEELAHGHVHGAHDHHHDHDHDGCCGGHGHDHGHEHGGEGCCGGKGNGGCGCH

[3] = target: T3, SlyD F96N, C-terminally hexahistidine-tagged (E. coli, UniProt P0A9K9 1-196, F96N)
T3 construct: FKBP-type peptidyl-prolyl cis-trans isomerase SlyD, E. coli; the tag is fused to the C-terminal domain; not shown: His6, C-terminal, kept
T3 sequence: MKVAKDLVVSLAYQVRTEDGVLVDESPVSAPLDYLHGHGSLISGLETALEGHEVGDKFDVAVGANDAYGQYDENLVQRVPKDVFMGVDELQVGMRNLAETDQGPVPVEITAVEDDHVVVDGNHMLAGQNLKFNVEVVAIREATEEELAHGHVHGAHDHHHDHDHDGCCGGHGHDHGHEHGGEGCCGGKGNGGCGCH

[4] = target: T4, SlyD from Escherichia coli, C-terminally hexahistidine-tagged, wild type (E. coli, UniProt P0A9K9 1-196)
T4 construct: FKBP-type peptidyl-prolyl cis-trans isomerase SlyD, E. coli; the tag is fused to the C-terminal domain; also called WT; wt; not shown: His6, C-terminal, kept
T4 sequence: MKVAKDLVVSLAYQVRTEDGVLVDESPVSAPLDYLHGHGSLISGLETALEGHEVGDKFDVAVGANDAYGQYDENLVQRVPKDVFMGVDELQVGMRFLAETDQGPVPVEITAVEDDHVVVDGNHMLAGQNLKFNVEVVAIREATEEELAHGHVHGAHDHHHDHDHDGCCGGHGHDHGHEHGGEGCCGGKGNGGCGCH

[5] = target: T5, SlyD F96G, C-terminally hexahistidine-tagged (E. coli, UniProt P0A9K9 1-196, F96G)
T5 construct: FKBP-type peptidyl-prolyl cis-trans isomerase SlyD, E. coli; the tag is fused to the C-terminal domain; not shown: His6, C-terminal, kept
T5 sequence: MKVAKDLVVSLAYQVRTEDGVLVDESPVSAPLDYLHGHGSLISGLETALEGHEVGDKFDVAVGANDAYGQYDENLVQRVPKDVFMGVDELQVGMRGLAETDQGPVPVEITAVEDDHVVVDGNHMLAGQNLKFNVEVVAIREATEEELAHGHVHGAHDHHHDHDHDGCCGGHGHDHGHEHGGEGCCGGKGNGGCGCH

[6] = target: T6, SlyD E89A, C-terminally hexahistidine-tagged (E. coli, UniProt P0A9K9 1-196, E89A)
T6 construct: FKBP-type peptidyl-prolyl cis-trans isomerase SlyD, E. coli; the tag is fused to the C-terminal domain; not shown: His6, C-terminal, kept
T6 sequence: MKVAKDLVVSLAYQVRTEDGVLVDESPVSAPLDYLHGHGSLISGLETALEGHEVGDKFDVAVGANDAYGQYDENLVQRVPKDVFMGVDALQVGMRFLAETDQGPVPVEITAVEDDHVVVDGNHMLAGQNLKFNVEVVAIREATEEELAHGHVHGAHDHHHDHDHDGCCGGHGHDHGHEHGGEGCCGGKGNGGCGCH

B1: HiPIP precursor (RR-HiPIP) from Allochromatium vinosum (natural protein)
chain: MSDKPISKSRRDAVKVMLGTAAAIPMINLVGFGTARASAPANAVAADDATAIALKYNQDATKSERVAAARPGLPPEEQHCANCQFMQADAAGATDEWKGCQLFPGKLINVNGWCASWTLKAG
modifications: HiPIP precursor; fully folded, [4Fe-4S] cluster presumed; signal peptide retained
[1]
  Kd: 6.62 ± 0.2 µM
  stoichiometry N: 0.532 ± 0.004
[2]
  Kd: 0.49 ± 0.07 µM
  stoichiometry N: 0.616 ± 0.008
[3]
  Kd: 8.85 ± 2.78 µM
  stoichiometry N: 0.628 ± 0.036
[4]
  stoichiometry N: 0.71 ± 0.002
[5]
  Kd: 5.65 ± 0.3 µM
  stoichiometry N: 0.575 ± 0.007
[6]
  Kd: 0.38 ± 0.04 µM
  stoichiometry N: 0.404 ± 0.004
